Results taken from US20190085055A1.
Values belong to the substance of their own block, whether it stands above or below them.

What was measured:
[1] = target: D3H44 light chain S176V_T178L; assay: LCCA (SPR), competitor L1 WT
[2] = target: D3H44 light chain, wild type; assay: LCCA (SPR), competitor L2 S176V_T178L
[3] = target: D3H44 light chain S176L; assay: LCCA (SPR), competitor L1 V133S
[4] = target: D3H44 light chain V133S; assay: LCCA (SPR), competitor L2 S176L
[5] = target: D3H44 light chain S176L; assay: LCCA: H1 co-expressed with L1 and L2, SPR read-out of light chain tags; competing chain L1
[6] = target: D3H44 light chain V133S; assay: LCCA: H1 co-expressed with L1 and L2, SPR read-out of light chain tags; competing chain L2
[7] = target: D3H44 light chain L89R_F98W; assay: LCCA (SPR), competitor L2 WT
[8] = target: D3H44 light chain L89R_F98W; assay: LCCA (SPR), competitor L2 F98Y
[9] = target: D3H44 light chain F98Y; assay: LCCA (SPR), competitor L1 L89R_F98W
[10] = target: D3H44 light chain, wild type; assay: LCCA (SPR), competitor L1 L89R_F98W
[11] = target: D3H44 light chain, wild type; assay: LCCA: H1 co-expressed with L1 and L2, SPR read-out of light chain tags; competing chain L1
[12] = target: D3H44 light chain L89R_F98W; assay: LCCA: H1 co-expressed with L1 and L2, SPR read-out of light chain tags; competing chain L2
[13] = target: D3H44 light chain F98A; assay: LCCA (SPR), competitor L2 WT
[14] = target: D3H44 light chain F98L; assay: LCCA (SPR), competitor L1 WT
[15] = target: D3H44 light chain F98W; assay: LCCA (SPR), competitor L1 F98A
[16] = target: D3H44 light chain, wild type; assay: LCCA (SPR), competitor L1 F98A
[17] = target: D3H44 light chain F98W; assay: LCCA (SPR), competitor L1 F98L
[18] = target: D3H44 light chain F98A; assay: LCCA (SPR), competitor L2 F98W
[19] = target: D3H44 light chain F98L; assay: LCCA (SPR), competitor L2 F98W
[20] = target: D3H44 light chain, wild type; assay: LCCA (SPR), competitor L2 F98L
[21] = target: D3H44 light chain F98A; assay: LCCA (SPR), competitor L1 P44W
[22] = target: D3H44 light chain F98A; assay: LCCA (SPR), competitor L1 Q38E
[23] = target: D3H44 light chain F98A; assay: LCCA (SPR), competitor L1 Q38R
[24] = target: D3H44 light chain P44W; assay: LCCA (SPR), competitor L2 F98A
[25] = target: D3H44 light chain Q38E; assay: LCCA (SPR), competitor L2 F98A
[26] = target: D3H44 light chain Q38R; assay: LCCA (SPR), competitor L2 F98A
[27] = target: D3H44 light chain F116A; assay: LCCA (SPR), competitor L1 WT
[28] = target: D3H44 light chain F98A; assay: LCCA (SPR), competitor L1 WT
[29] = target: D3H44 light chain F98A; assay: LCCA (SPR), competitor L1 F98W
[30] = target: D3H44 light chain F98W; assay: LCCA (SPR), competitor L2 F98A
[31] = target: tissue factor extracellular domains (human) (UniProt P13726); assay: SPR, median of repeats
[32] = target: tissue factor extracellular domains (human) (UniProt P13726); assay: SPR, TF immobilised, purified Fab as analyte, 1:1 model

H1 L2 of H1 L1:H1 L2 (screen) [3]: 7.72 | H1 L2 of H1 L1:H1 L2 (verification) [3]: 12.4 | H1 L1 of H1 L1:H1 L2 (screen) [4]: 90 | H1 L1 of H1 L1:H1 L2 (verification) [4]: 81.2 | H1 Readout (H1-L2) [5]: 24 | H1 Readout (H1-L1) [6]: 83
Substance: D3H44 heavy chain (Fab format) S188L_V190Y

H1 L1 of H1 L1:H1 L2 (screen) [7]: 98.7 | H1 L1 of H1 L1:H1 L2 (verification) [7]: 119 | H1 L1 of H1 L1:H1 L2 (screen) [8]: 67.8 | H1 L1 of H1 L1:H1 L2 (verification) [8]: 76.3 | H1 L2 of H1 L1:H1 L2 (screen) [9]: 24.4 | H1 L2 of H1 L1:H1 L2 (verification) [9]: 18.1 | H1 L2 of H1 L1:H1 L2 (screen) [10]: 4.2 | H1 L2 of H1 L1:H1 L2 (verification) [10]: 4.5 | H1 Readout (H1-L2) [11]: 10 | H1 Readout (H1-L1) [12]: 99
Substance: D3H44 heavy chain (Fab format) V37E_F100D

H1 L1 of H1 L1:H1 L2 (screen) [13]: 64.1 | H1 L2 of H1 L1:H1 L2 (screen) [15]: 23.5 | H1 L2 of H1 L1:H1 L2 (verification) [15]: 23.4 | H1 L2 of H1 L1:H1 L2 (screen) [16]: 28.8 | H2 L2 of H2 L2:H2 L1 (screen) [21]: 83.1 | H2 L2 of H2 L2:H2 L1 (screen) [22]: 65.9 | H2 L2 of H2 L2:H2 L1 (verification) [22]: 70.5 | H2 L2 of H2 L2:H2 L1 (screen) [23]: 48.9 | H2 L2 of H2 L2:H2 L1 (verification) [23]: 47.8 | H2 L1 of H2 L2:H2 L1 (screen) [24]: 9.41 | H2 L1 of H2 L2:H2 L1 (screen) [25]: 8.05 | H2 L1 of H2 L2:H2 L1 (verification) [25]: 10.3 | H2 L1 of H2 L2:H2 L1 (screen) [26]: 26.8 | H2 L1 of H2 L2:H2 L1 (verification) [26]: 26.7 | H1 L1 of H1 L1:H1 L2 (screen) [18]: 62.4 | H1 L1 of H1 L1:H1 L2 (verification) [18]: 61.5
Substance: D3H44 heavy chain (Fab format) V37W

H1 L2 of H1 L1:H1 L2 (screen) [27]: 26.3 | H1 L2 of H1 L1:H1 L2 (screen) [28]: 7.5 | H1 L2 of H1 L1:H1 L2 (screen) [14]: 13.3 | H2 L2 of H2 L2:H2 L1 (screen) [1]: 99.4 | H2 L2 of H2 L2:H2 L1 (screen) [17]: 74.2 | H2 L2 of H2 L2:H2 L1 (verification) [17]: 50.8 | H1 L2 of H1 L1:H1 L2 (screen) [29]: 28.7 | H1 L2 of H1 L1:H1 L2 (verification) [29]: 28.7 | H1 L1 of H1 L1:H1 L2 (screen) [30]: 67.1 | H1 L1 of H1 L1:H1 L2 (verification) [30]: 67.1 | H2 L1 of H2 L2:H2 L1 (screen) [19]: 27.8 | H2 L1 of H2 L2:H2 L1 (verification) [19]: 23.6
Substance: D3H44 heavy chain (Fab format), wild type

More lines, now with the values behind:

Substance: D3H44 heavy chain (Fab format) S188I
H1 L2 of H1 L1:H1 L2 (screen) [1]: 41.9 | H1 L1 of H1 L1:H1 L2 (screen) [2]: 61.9

Substance: D3H44 heavy chain (Fab format) V37I
H2 L1 of H2 L2:H2 L1 (screen) [13]: 28.7 | H1 L2 of H1 L1:H1 L2 (screen) [14]: 7.34 | H2 L2 of H2 L2:H2 L1 (screen) [15]: 66.5 | H2 L2 of H2 L2:H2 L1 (screen) [16]: 72.6 | H2 L2 of H2 L2:H2 L1 (screen) [17]: 65.7 | H2 L1 of H2 L2:H2 L1 (screen) [18]: 30.9 | H2 L1 of H2 L2:H2 L1 (screen) [19]: 21.7 | H1 L1 of H1 L1:H1 L2 (screen) [20]: 78.5

Substance: Wild-type anti-TF D3H44 Fab
Kd [31]: 60 pM | Kd [32]: 52 pM
